Measured values: patent US12129308B2, “MMP13 binding immunoglobulins” (Merck Patent GmbH, priority 2017, dated 2024)
Changes are numbered by the printed parent chain. Names may count otherwise.

Key:
[1] = thermal shift assay (TSA); assay type: physicochemical; conditions: for Tm at pH 7: pH 7, monovalent Nanobodies; for TSA Tm (° C.)@ pH 7: C0101517A01 2nd round sequence optimization variants
Description: TSA was carried out with 5 μl of purified monovalent Nanobodies in essence according to Ericsson et al. (2006 Anals of Biochemistry, 357: 289-298).
The thermal stability of the wildtype anti-MMP13 Nanobodies was investigated in a thermal shift assay (TSA).

[2] = analytical size exclusion chromatography (aSEC); assay type: physicochemical; conditions: main peak
Description: Analytical SEC experiments were performed on an Ultimate 3000 machine (Dionex) in combination with a Biosep-SEC-3 (Agilent) column.
The tendency for multimerisation and aggregation of a selected panel of 5 representative anti-MMP13 Nanobodies was investigated by analytical size exclusion chromatography (aSEC).

[3] = SDS-Page; assay type: physicochemical
[4] = temperature stress; assay type: physicochemical; conditions: forced oxidation and temperature stress conditions
Description: Nanobody samples (1-2 mg/ml) were stored in PBS for four weeks at −20° C. (negative control) 25 and 40° C. After this incubation period, Nanobodies were digested with Trypsin or LysC. Peptides of stressed and control samples were then analyzed by means of RPC on a Series 1290 machine (Agilent Technologies) over an Acquity UPLC BEH300-C18 column (Agilent Technologies) at 60° C. coupled to a Q-TOF mass spectrometer (6530 Accurate Mass Q-TOF (Agilent))
(§1) In order to assess potential PTM, forced oxidation and temperature stress was applied on the lead panel.

[5] = molecular target: T1, MMP13 (Homo sapiens, UniProt P45452); experiment: fluorogenic peptide assay for sequence optimization variants and NNK libraries (species not stated); assay type: biochemical; conditions: C0101517A01 2nd round sequence optimization variants
Description: (§2) The setup of human, cynomolgus, rat, dog and bovine MMP13 fluorogenic peptide assays, as well as human MMP1 and MMP14 fluorogenic peptide assays is in brief as follows: activated MMP was incubated with fluorogenic peptide substrate Mca-PLGL-Dpa-AR-NH2 (R&D Systems #ES001) and a ⅕ dilution of periplasmic extract or a dilution series of purified Nanobody/positive control (total volume=20 μl in assay buffer 50 mM Tris pH 7.5, 100 mM NaCl, 10 mM CaCl2, 0.01% Tween20), for 2 h at 37° C.
However, the degree of isomerization and oxidation differed at the assessed conditions and were just below or above the applied threshold in each case. Eventually, amino acid residues 54-55, 100d-100e, M100j and 101-102 were identified as the residues responsible for the PTM. […] In order to attempt accommodating the different requirements, […] were constructed in which these residues were mutated, and subsequently screened in the fluorogenic peptide assay to evaluate possible potency losses as well as screened for biophysical properties (Tm).
Eventually, amino acid residues N100b and N101 were identified as residues sensitive to deamidation via temperature stress experiments. However, these residues are located in the CDR3 region, and potentially involved in target binding. Thus, knocking out the deamidation sites could have an impact on binding.

[6] = molecular target: T1, MMP13; experiment: human MMP13 fluorogenic peptide assay; assay type: biochemical
Description: as §2
(§3) The potency/efficacy of the Nanobodies was tested in the fluorogenic peptide assay, set up for different MMP13 orthologues and in the human collagenolytic assay (both assays were also used during screening, see Example 6.3). In addition, a second collagen-based assay (fluorogenic collagen assay) using higher Collagen concentrations in comparison with the collagenolytic assay was established to simulate the high Collagen concentration conditions in cartilage in which the MMP13 inhibitor is expected to be active. In this assay the fluorescence of the intact FITC-labelled Collagen substrate is low due to the reciprocal quenching effect of the fluorophores. Upon cleavage, quenching is lost and fluorescence increases.

[7] = molecular target: T2, activated MMP13 (Homo sapiens, UniProt P45452); experiment: human collagenolytic assay (human Collagen II); assay type: biochemical; conditions: low Collagen concentration conditions
Description: The setup of this assay is in brief as follows: 250 ng/ml immunization grade human Collagen II (Chondrex #20052) was incubated with 5 nM activated MMP13 in 100 μl assay buffer (50 mM Tris-Cl pH 7.5, 100 mM NaCl, 10 mM CaCl2, 0.01% Tween-20). After 1.5 h incubation at 35° C., the reaction was neutralized with EDTA (10 μl of 30 mM stock). […] Remaining intact Collagen was detected via ELISA (reagents provided in Type II Collagen Detection kit (Chondrex #6009)).

[8] = molecular target: T2, activated MMP13; experiment: human fluorogenic collagen assay (DQ Collagen type I); assay type: biochemical; conditions: Table 6.5
Description: In brief, the setup of this assay is as follows: 100 μg/ml DQ™ Collagen, type I from Bovine skin (fluorescein conjugate; Molecular Probes #D-12060 lot 1149062) was incubated with 10 nM activated MMP13 and a dilution series of purified Nanobody/positive control, for 2 h at 37° C. in 40 μl assay buffer (50 mM Tris-Cl pH 7.5, 100 mM NaCl, 10 mM CaCl2, 0.01% Tween-20).
as §3
In FIG. 1 the dose response curves for inhibition of activated human MMP13 when using high concentrations of bovine Collagen I (fluorogenic Collagen assay) are depicted.

[9] = molecular target: human full-length MMP13 (Homo sapiens, UniProt P45452); experiment: competition ELISA against biotinylated 40E09 (epitope binning); assay type: binding; conditions: 0.6 nM biotinylated 40E09
Description: FIG. 3: Competition ELISA with 0.6 nM biotinylated 40E09 against a panel of profile 1 and profile 2 Nanobodies on human full-length MMP13, coated via mouse anti-human MMP13 mAb (R&D Systems #MAB511). MMP13 was activated via incubation with APMA for 90 min at 37° C.
For epitope-binning a panel of monovalent Nanobodies derived from profile 1 and profile 2 were tested in a competition ELISA against the purified Nanobody 40E09 (profile 1).

[10] = molecular target: rat MMP13 (Rattus norvegicus, UniProt P23097); experiment: adapted (more sensitive) rat fluorogenic peptide assay; assay type: biochemical; conditions: 0.15 nM MMP13 instead of 1.33 nM
Description: as §2
As best species cross-reactive binder (cf. Example 6.4.2) Nanobody 40E09 was selected as representative of profile 1 Nanobodies. For profile 2, three Nanobodies were selected: 516G08, 62C02 and 517A01. Profile 1 and profile 2 Nanobodies were combined in a bivalent format with a 35GS linker (see Table 6.5; Nb(A)-35GS-Nb(B)). The bivalent Nanobodies were cloned into pAX205, transformed into P. pastoris, expressed and purified according to standard procedures. […] Bivalent constructs were tested in this adapted fluorogenic peptide assay as well as in the human fluorogenic collagen assay.

[11] = forced oxidation; assay type: physicochemical; conditions: forced oxidation and temperature stress conditions
Description: Nanobody samples (1 mg/ml) were subjected for four hours at RT and in the dark to 10 mM H2O2 in PBS, in parallel with control samples without H2O2, followed by buffer switch to PBS using Zeba desalting spin columns (0.5 ml) (Thermo Scientific). Stressed and control samples were then analyzed by means of RPC on a Series 1200 or 1290 machine (Agilent Technologies) over a Zorbax 300SB-C3 column (Agilent Technologies) at 70° C. Oxidation of Nanobodies was quantified by determination of % peak area of pre-peaks occurring as a result of oxidative stress, compared to the main protein peak.
as §1

B1: 517A01: anti-MMP13 Nanobody, profile 2, SEQ ID NO: 10; C010100087 is the parental of Table 6.7.1D (protein)
VHH: DVQLVESGGGLVQPGGSLRLSCAASGRTFSSYAMGWFRQAPGKEREFVAAISWSGGSTYYADSVKGRFTISRDNSKNTVYLQMNSLRPEDTAVYYCTAALAVYGPNRYRYGPVGEYNYWGQGTLVTVSS
Tm at pH 7 [1]: 77.8 °C
TSA Tm (° C.)@ pH 7 [1]: 78 °C
relative area [2]: 100%
SDS-Page results [3]: 1 band
deamidation [4]: prone to deamidation

B2: C010100649: C0101517A01 sequence optimization variant, mutations N100bS, N101Q (protein)
VHH: B1 VHH with N106S, N117Q
TSA Tm (° C.)@ pH 7 [1]: 79 °C
IC50 [5]: 2 nM

B3: C010100648: C0101517A01 sequence optimization variant, mutations N100bQ, N101Q (protein)
VHH: B1 VHH with N106Q, N117Q
TSA Tm (° C.)@ pH 7 [1]: 81 °C
IC50 [5]: 2.8 nM

B4: C010100647: C0101517A01 sequence optimization variant, mutations N100bQ, N101V (protein)
VHH: B1 VHH with N106Q, N117V
TSA Tm (° C.)@ pH 7 [1]: 81 °C
IC50 [5]: 2.1 nM

B5: C010100650: C0101517A01 sequence optimization variant, mutations N100bS, N101V (protein)
VHH: B1 VHH with N106S, N117V
TSA Tm (° C.)@ pH 7 [1]: 81 °C
IC50 [5]: 2.1 nM

B6: 529C12: anti-MMP13 Nanobody, profile 2, SEQ ID NO: 9 (protein)
VHH: DVQLVESGGGLVQPGGSLRLSCVASGSIFSINAMGWYRQAPGKQRELVAAISSGGSTYYADSVKGRFTISRDNSKNTVYLQMNSLRPEDTAVYYCNAAVDASRGLPYELYYYWGQGTLVTVSS
Tm at pH 7 [1]: 82.7 °C
relative area [2]: 100%
SDS-Page results [3]: 1 band

B7: 516G08: anti-MMP13 Nanobody, profile 2, SEQ ID NO: 13 (protein)
VHH: DVQLVESGGGLVQPGGSLRLSCAGSGSIFRINVMAWYRQAPGKQRELVAAITSGGTTNYADSVKGRFTISRDNSKNTVYLQMNSLRPEDTAVYYCYADIGWPYVLDYDFWGQGTLVTVSS
Tm at pH 7 [1]: 65.2 °C

B8: 40E09: anti-MMP13 Nanobody, profile 1, SEQ ID NO: 1 (protein)
VHH: EVQLVESGGGSVQAGGSLRLSCAASGSTFSRYSMNWYRQAPGKQREFVAGISVGRITNYAVSVRGRFTISRDNAEGTGYLQMNSLKPEDTAVYYCNAGGLQGYWGLGTQVTVSS
inhibition in the fluorogenic peptide assay (screening) [6]: incomplete inhibition
efficacy / inhibition in the collagenolytic assay [7]: positive
IC50 human fluorogenic collagen assay [8]: partial
competition with 40E09 in competition ELISA [9]: compete with 40E09
IC50 (adapted) rat fluorogenic peptide assay [10]: neutral
Tm at pH 7 [1]: 68.6 °C
relative area [2]: 100%
SDS-Page results [3]: 1 band

B9: 80A01: anti-MMP13 Nanobody, profile 2, SEQ ID NO: 12 (protein)
VHH: EVQLVESGGGLVQPGGSLRLSCAASGFTLAYYSIGWFRQAPGKEREGVSCISSGIDGSTYYADSVKGRFTISRDNAKNTMYLQMNNLKPEDTGVYYCAADPSHYYSEYDCGYYGMDYWGKGTLVTVSS
Tm at pH 7 [1]: 68.6 °C
relative area [2]: 95%
Met-oxidation [11]: prone
Asp-isomerization [4]: prone to Asp-isomerization

B10: 62C02: anti-MMP13 Nanobody, profile 2, SEQ ID NO: 11 (protein)
VHH: EVQLVESGGALVRPGGSLRLSCAASGFAFSAAYMSWVRQAPGRGLEWVSSISDDGSKTYYADSVKGRFTISRDNAKNTVYLQMNNLKPDDTAVYYCNTGYGATTTRPGRYWGQGTQVTVSS
Tm at pH 7 [1]: 76.4 °C
relative area [2]: 100%
